Test results from article PMC5378391, “Maltose binding protein-fusion enhances the bioactivity of truncated forms of pig myostatin propeptide produced in E. coli” (PLoS ONE, 2017).

B1: MBP-fused truncated pig MSTNpro containing residues 42-98 (domain or fragment, UniProt O18831 42-98, looked up)
chain: CMWRQNTKSSRLEAIKIQILSKLRLETAPNISKDAIRQLLPKAPPLRELIDQYDVQR
B2: Pro42-98 (MBP removed by factor Xa) (domain or fragment, pig, UniProt O18831 42-98, looked up)
chain: B1 chain
notes: Pig myostatin propeptide (MSTNpro), residues 42-98; Derived from m4; also called MBP-removed MSTNpro domain containing residues 42-98; source: E. coli K12TB1; MBP-Pro42-98 digested with factor Xa, soluble fraction of the digest / Superdex 75 fraction f16; not shown: MBP, N-terminal, cleaved

Legend:
Myostatin (MSTN) [1] = target: Myostatin (MSTN) (UniProt O14793)
Myostatin (MSTN) [2] = target: Myostatin (MSTN) (UniProt O14793); remark: listed apart in the source
[3] = target: Pro23-98 (MBP removed by factor Xa) (pig) (UniProt O18831); assay: non-reducing SDS-PAGE; samples boiled in SDS loading buffer without beta-mercaptoethanol (unreduced) or with it (reduced); 15% gel, Coomassie blue; can show only disulfide-linked dimers
Myostatin (MSTN) [4] = target: T1, Myostatin (MSTN) (UniProt O14793 267-375); assay: cell-based or functional assay
T1 sequence (looked up): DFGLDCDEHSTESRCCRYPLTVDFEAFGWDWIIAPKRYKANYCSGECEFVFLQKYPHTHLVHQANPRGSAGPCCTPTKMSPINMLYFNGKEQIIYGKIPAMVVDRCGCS

[5] = target: the molecule itself; assay: non-reducing SDS-PAGE; samples boiled in SDS loading buffer without beta-mercaptoethanol (unreduced) or with it (reduced); 15% gel, Coomassie blue; can show only disulfide-linked dimers

Molecule | IC50 to suppress 1 nM MSTN activity, pGL3-(CAGA)12-luciferase reporter assay in HEK293 cells (Myostatin (MSTN) [1]) [nM] | also measured
Full sequence MBP-fused pig MSTNpro (metalloproteinase-resistant mutant) (domain or fragment) | 2.8 | 
MBP-fused truncated pig MSTNpro containing residues 42-218 (from UniProt O18831 42-218) (domain or fragment) | 3.3 | 
Pro42-175 (MBP removed by factor Xa) (from UniProt O18831 42-175) (domain or fragment) |  | IC50 to suppress 1 nM MSTN, (CAGA)12-luciferase reporter gene assay, after removal of MBP (Myostatin (MSTN) [2]): 44.9 nM
MBP-fused truncated pig MSTNpro containing residues 42-115 (from UniProt O18831 42-115) (domain or fragment) | 17.7 | 
MBP-fused truncated pig MSTNpro containing residues 42-175 (from UniProt O18831 42-175) (domain or fragment) | 2.7 | 
Pro23-98 (MBP removed by factor Xa) (from UniProt O18831 23-98) (domain or fragment) |  | stoichiometry N [3]: 2
B1 |  | IC50 to suppress 1 nM MSTN activity, pGL3-(CAGA)12-luciferase reporter assay in HEK293 cells (Myostatin (MSTN) [4]): 24.1 nM
B2 |  | stoichiometry N [5]: 2
